Data as given in PMC8718839 (iScience, 2021).

T1: ActRIIB-Alk4-Fc (human, UniProt Q13705;P36896)
T1 sequence 1: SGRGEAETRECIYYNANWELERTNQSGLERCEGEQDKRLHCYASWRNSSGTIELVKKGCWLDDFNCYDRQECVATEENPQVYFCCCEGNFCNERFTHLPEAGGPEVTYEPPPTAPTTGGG
T1 sequence 2: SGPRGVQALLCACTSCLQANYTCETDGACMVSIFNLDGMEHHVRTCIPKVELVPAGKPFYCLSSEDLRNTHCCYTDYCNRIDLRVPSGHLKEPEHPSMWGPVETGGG

T2: (ActRIIB)2-Fc (UniProt Q13705-1 19-137)
T2 sequence: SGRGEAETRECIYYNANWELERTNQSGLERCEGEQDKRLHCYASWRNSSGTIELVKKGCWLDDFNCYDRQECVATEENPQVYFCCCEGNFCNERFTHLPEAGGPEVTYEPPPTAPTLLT

T3: ActRIIB-Fc (UniProt Q13705 19-137)
T3 sequence: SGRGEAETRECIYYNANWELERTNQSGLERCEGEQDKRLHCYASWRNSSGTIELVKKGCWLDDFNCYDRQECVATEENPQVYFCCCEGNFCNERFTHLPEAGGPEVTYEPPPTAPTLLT


Assays:
crystal structure = target: the molecule itself; experiment: crystal structure
ActRIIB-Alk4-Fc = target: T1, ActRIIB-Alk4-Fc; experiment: SPR
(ActRIIB)2-Fc = target: T2, (ActRIIB)2-Fc; experiment: SPR
ActRIIB-Fc = target: T3, ActRIIB-Fc; experiment: SPR

Binder | binding result (crystal structure) | Kd (ActRIIB-Alk4-Fc) [nM] | Kd ((ActRIIB)2-Fc) [nM] | Kd (ActRIIB-Fc) [nM]
Activin A mature (ligand) GLECDGKVNICCKKQFFVSFKDIGWNDWIIAPSGYHANYCEGECPSHIAGTSGSSLSFHSTVINHYRMRGHSPFANLKSCCVPTKLRPMSMLYYDDGQNIIKKDIQNMIVEECGCS | binds | 0.0304 | 0.0125 | 0.108
GDF11 mature (ligand) NLGLDCDEHSSESRCCRYPLTVDFEAFGWDWIIAPKRYKANYCSGQCEYMFMQKYPHTHLVQQANPRGSAGPCCTPTKMSPINMLYFNDKQQIIYGKIPGMVVDRCGCS | binds | 0.00424 | 0.00191 | 0.0147
